Test results published in article PMC9482650, “Quantitative fragmentomics allow affinity mapping of interactomes” (Nature Communications, 2022).

Key:
Experiment in all cases: holdup assay
Design in all cases: key: below the threshold = too weak to quantify, mostly under pKd 3.1 to 4
AHNAK2, Q8IVF2 = target: AHNAK2, Q8IVF2
DLG2_1, Q15700 = target: DLG2_1, Q15700
DVL1, O14640 = target: T1, DVL1, O14640
T1 sequence (O14640 246-333, limits assumed, looked up): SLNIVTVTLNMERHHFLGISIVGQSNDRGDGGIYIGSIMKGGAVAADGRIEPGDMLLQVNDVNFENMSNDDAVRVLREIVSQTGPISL

GRIP1_1, Q9Y3R0 = target: T2, GRIP1_1, Q9Y3R0
T2 sequence (Q9Y3R0 48-146, limits assumed, looked up): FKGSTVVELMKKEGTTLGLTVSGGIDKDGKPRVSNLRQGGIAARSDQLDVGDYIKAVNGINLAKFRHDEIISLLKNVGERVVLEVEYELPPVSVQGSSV

IL16_2, Q14005 = target: IL16_2, Q14005
LNX2_4, Q8N448 = target: T3, LNX2_4, Q8N448
T3 sequence (Q8N448 595-690, limits assumed, looked up): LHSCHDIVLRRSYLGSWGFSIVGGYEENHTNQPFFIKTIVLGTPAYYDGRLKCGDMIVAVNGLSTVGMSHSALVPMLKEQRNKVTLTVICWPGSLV

MAGI1_4, Q96QZ7 = target: MAGI1_4, Q96QZ7
MAGIX, Q9H6Y5 = target: MAGIX, Q9H6Y5
MLLT4, P55196 = target: T4, MLLT4, P55196
T4 sequence (P55196 1002-1103, limits assumed, looked up): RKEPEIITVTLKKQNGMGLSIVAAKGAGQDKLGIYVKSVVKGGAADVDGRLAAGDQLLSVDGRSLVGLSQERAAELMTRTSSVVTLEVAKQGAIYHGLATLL

MPDZ_13, O75970 = target: T5, MPDZ_13, O75970
T5 sequence (O75970 1982-2070, limits assumed, looked up): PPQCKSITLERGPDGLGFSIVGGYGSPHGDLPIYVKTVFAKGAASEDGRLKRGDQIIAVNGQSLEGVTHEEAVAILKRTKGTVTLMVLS

MPDZ_6, O75970 = target: T6, MPDZ_6, O75970
T6 sequence (O75970 1003-1099, limits assumed, looked up): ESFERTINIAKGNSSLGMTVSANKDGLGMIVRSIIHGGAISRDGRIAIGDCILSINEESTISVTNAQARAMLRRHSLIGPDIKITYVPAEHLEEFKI

MPP1, Q00013 = target: T7, MPP1, Q00013
T7 sequence (Q00013 66-162, limits assumed, looked up): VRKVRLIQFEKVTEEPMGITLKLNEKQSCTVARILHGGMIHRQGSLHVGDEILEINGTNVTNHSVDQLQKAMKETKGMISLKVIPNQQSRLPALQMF

NHERF1_1, O14745 = target: T8, NHERF1_1, O14745
T8 sequence (O14745 9-104, limits assumed, looked up): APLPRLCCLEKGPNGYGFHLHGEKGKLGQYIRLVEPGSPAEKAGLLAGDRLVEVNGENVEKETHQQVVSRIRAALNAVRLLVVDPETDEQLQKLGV

PARD3_1, Q8TEW0 = target: PARD3_1, Q8TEW0
PDZD7_1, Q9H5P4 = target: T9, PDZD7_1, Q9H5P4
T9 sequence (Q9H5P4 81-178, limits assumed, looked up): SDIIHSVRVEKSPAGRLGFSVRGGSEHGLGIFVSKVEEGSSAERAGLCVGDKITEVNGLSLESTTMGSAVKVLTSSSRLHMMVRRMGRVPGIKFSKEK

PDZD9, Q8IXQ8 = target: PDZD9, Q8IXQ8
PDZRN3_2, Q9UPQ7 = target: T10, PDZRN3_2, Q9UPQ7
T10 sequence (Q9UPQ7 414-513, limits assumed, looked up): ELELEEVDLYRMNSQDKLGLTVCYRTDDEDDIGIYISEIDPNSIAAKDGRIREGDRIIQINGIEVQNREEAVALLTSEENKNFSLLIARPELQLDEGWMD

PREX2_2, Q70Z35 = target: T11, PREX2_2, Q70Z35
T11 sequence (Q70Z35 672-764, limits assumed, looked up): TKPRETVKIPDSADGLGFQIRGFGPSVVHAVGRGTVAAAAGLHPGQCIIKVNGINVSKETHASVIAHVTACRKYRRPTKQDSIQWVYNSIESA

PTPN13_2, Q12923 = target: PTPN13_2, Q12923
RGS12, O14924 = target: T12, RGS12, O14924
T12 sequence (O14924 17-108, limits assumed, looked up): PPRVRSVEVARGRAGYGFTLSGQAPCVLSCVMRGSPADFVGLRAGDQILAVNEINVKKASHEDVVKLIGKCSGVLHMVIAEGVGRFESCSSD

RIMS2, Q9UQ26 = target: RIMS2, Q9UQ26
SDCBP_1, O00560 = target: SDCBP_1, O00560
SHANK3, Q9BYB0 = target: T13, SHANK3, Q9BYB0
T13 sequence (Q9BYB0 641-750, limits assumed, looked up): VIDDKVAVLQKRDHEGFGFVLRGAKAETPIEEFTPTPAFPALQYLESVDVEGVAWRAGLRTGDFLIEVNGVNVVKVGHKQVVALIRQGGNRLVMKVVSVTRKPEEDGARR

TJP3_1, O95049 = target: T14, TJP3_1, O95049
T14 sequence (O95049 6-103, limits assumed, looked up): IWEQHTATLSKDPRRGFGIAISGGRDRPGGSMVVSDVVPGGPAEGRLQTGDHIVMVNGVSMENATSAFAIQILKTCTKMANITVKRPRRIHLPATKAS

[1] = plain residues with an end cap or a label only (N-terminal biotin on a linker: ttds)
[2] = plain residues with an end cap or a label only (N-terminal biotin on a linker: none)

Measured: pKd

Sequence of SDCBP_1, O00560 (O00560 111-198): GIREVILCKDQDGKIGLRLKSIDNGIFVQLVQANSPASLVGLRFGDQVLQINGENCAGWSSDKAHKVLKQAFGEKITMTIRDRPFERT
Sequence of PDZD9, Q8IXQ8 (Q8IXQ8 23-120): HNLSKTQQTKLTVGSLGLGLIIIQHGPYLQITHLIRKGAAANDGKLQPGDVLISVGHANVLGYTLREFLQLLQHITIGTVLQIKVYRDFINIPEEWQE
Sequence of MAGI1_4, Q96QZ7 (Q96QZ7 other isoform, or with tags, fused parts or gaps): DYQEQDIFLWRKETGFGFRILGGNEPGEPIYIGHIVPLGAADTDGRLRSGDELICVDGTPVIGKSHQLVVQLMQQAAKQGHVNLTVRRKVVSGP
Sequence of PARD3_1, Q8TEW0 (Q8TEW0 264-372): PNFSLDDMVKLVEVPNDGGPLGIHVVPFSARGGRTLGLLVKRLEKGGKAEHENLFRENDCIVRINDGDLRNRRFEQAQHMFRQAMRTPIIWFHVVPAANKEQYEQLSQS
Sequence of RIMS2, Q9UQ26 (Q9UQ26 637-758): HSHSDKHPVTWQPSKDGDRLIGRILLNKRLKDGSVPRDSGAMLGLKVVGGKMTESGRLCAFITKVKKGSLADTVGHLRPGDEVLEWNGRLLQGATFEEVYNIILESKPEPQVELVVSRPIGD
Sequence of IL16_2, Q14005 (Q14005 350-450): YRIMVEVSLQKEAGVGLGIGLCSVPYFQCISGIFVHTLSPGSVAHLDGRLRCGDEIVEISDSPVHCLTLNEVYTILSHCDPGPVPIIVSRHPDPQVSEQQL
Sequence of AHNAK2, Q8IVF2 (Q8IVF2 108-193): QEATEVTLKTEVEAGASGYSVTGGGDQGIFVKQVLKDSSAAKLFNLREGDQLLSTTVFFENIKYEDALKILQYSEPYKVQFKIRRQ
Sequence of PTPN13_2, Q12923 (Q12923 1363-1462): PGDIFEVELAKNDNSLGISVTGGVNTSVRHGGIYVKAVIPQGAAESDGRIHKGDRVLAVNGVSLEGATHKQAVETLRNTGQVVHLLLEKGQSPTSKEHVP
Sequence of MAGIX, Q9H6Y5 (Q9H6Y5 118-211): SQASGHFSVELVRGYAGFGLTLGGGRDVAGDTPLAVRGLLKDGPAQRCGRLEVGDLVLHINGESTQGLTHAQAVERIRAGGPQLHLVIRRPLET

RPLPRKVSQL [DOCK4, Q8N1I0]
4.33: PDZD7_1, Q9H5P4; [1]
below the threshold: AHNAK2, Q8IVF2; [1] | DLG2_1, Q15700; [1] | DVL1, O14640; [1] | IL16_2, Q14005; [1] | LNX2_4, Q8N448; [1] | MAGI1_4, Q96QZ7; [1] | MAGIX, Q9H6Y5; [1] | MLLT4, P55196; [1] | MPDZ_13, O75970; [1] | MPDZ_6, O75970; [1] | NHERF1_1, O14745; [1] | PARD3_1, Q8TEW0; [1] | PDZD9, Q8IXQ8; [1] | PDZRN3_2, Q9UPQ7; [1] | PREX2_2, Q70Z35; [1] | PTPN13_2, Q12923; [1] | RGS12, O14924; [1] | RIMS2, Q9UQ26; [1] | SDCBP_1, O00560; [1] | SHANK3, Q9BYB0; [1] | TJP3_1, O95049; [1]
4.29: MPP1, Q00013; [1]
4.15: GRIP1_1, Q9Y3R0; [1]

NLNSSRVPDLLV [SARS-CoV2-E, P0DTC4]
below the threshold: AHNAK2, Q8IVF2; [2] | DLG2_1, Q15700; [2] | DVL1, O14640; [2] | GRIP1_1, Q9Y3R0; [2] | IL16_2, Q14005; [2] | LNX2_4, Q8N448; [2] | MAGIX, Q9H6Y5; [2] | MPDZ_13, O75970; [2] | MPDZ_6, O75970; [2] | MPP1, Q00013; [2] | NHERF1_1, O14745; [2] | PARD3_1, Q8TEW0; [2] | PDZD7_1, Q9H5P4; [2] | PDZRN3_2, Q9UPQ7; [2] | PREX2_2, Q70Z35; [2] | PTPN13_2, Q12923; [2] | RGS12, O14924; [2] | RIMS2, Q9UQ26; [2] | SDCBP_1, O00560; [2] | TJP3_1, O95049; [2]
3.94: PDZD9, Q8IXQ8; [2]
3.75: MAGI1_4, Q96QZ7; [2]
4.1: MLLT4, P55196; [2]
3.83: SHANK3, Q9BYB0; [2]

SGSRPSATVV [HPV73-E6, Q82005]
4.21: TJP3_1, O95049; [1]
4.14: MPP1, Q00013; [1]
below the threshold: AHNAK2, Q8IVF2; [1] | DLG2_1, Q15700; [1] | GRIP1_1, Q9Y3R0; [1] | IL16_2, Q14005; [1] | LNX2_4, Q8N448; [1] | MAGI1_4, Q96QZ7; [1] | MAGIX, Q9H6Y5; [1] | MLLT4, P55196; [1] | MPDZ_13, O75970; [1] | MPDZ_6, O75970; [1] | NHERF1_1, O14745; [1] | PARD3_1, Q8TEW0; [1] | PDZD7_1, Q9H5P4; [1] | PDZD9, Q8IXQ8; [1] | PDZRN3_2, Q9UPQ7; [1] | PREX2_2, Q70Z35; [1] | PTPN13_2, Q12923; [1] | RGS12, O14924; [1] | RIMS2, Q9UQ26; [1] | SDCBP_1, O00560; [1] | SHANK3, Q9BYB0; [1]
4.36: DVL1, O14640; [1]
